Consider eight sequences from the Immune Epitope Database (IEDB).

Assay [1] has as its target HLA-B*15:42. Put plainly: IEDB peptide-MHC binding, purified MHC/competitive/fluorescence; filed as Kd, often an IC50 or EC50 that approximates it; ≥ and ≤ were set here for values at or beyond the usual limits of such assays.
Assay [2] addresses HLA-B*83:01. Described as above.
For assay [3], the target named is HLA-C*04:01. The assay is described as above.
In assay [4] the target is HLA-B*45:06. The description is as above.
Assay [5] addresses HLA-B*44:03. Put plainly: IEDB peptide-MHC binding, purified MHC/competitive/radioactivity; filed as Kd, often an IC50 or EC50 that approximates it; ≥ and ≤ were set here for values at or beyond the usual limits of such assays. The following applies: source organism: Dengue virus 2 Jamaica/1409/1983.
Assay [6] has as its target HLA-B*44:02. Nature of the assay: IEDB peptide-MHC binding, purified MHC/direct/fluorescence; filed as Kd, often an IC50 or EC50 that approximates it; ≥ and ≤ were set here for values at or beyond the usual limits of such assays. The conditions noted are these: source organism: dengue virus type 1.
Assay [7] concerns the target HLA-B*18:01. The assay is described as above.
Assay [8] deals with HLA-B*08:01. Put plainly: IEDB peptide-MHC binding, purified MHC/competitive/fluorescence; filed as Kd, often an IC50 or EC50 that approximates it; ≥ and ≤ were set here for values at or beyond the usual limits of such assays. The conditions noted are these: source organism: Escherichia coli.
Assay [9] concerns the target HLA-B*15:01. The assay is described as above. The conditions noted are these: source organism: Escherichia coli.
The target in assay [10] is HLA-A*02:03. Described as above.
Assay [11] has as its target HLA-A*02:01. The description is as above.
The target of assay [12] is HLA-B*39:01. Described as above. The following applies: source organism: Vaccinia virus WR.
The target of assay [13] is HLA-A*69:01. The assay is described as above.
Assay [14] addresses HLA-A*02:06. Described as above.
Assay [15] deals with HLA-B*15:09. Described as above.
For assay [16], the target named is HLA-B*58:01. Put plainly: IEDB peptide-MHC binding, purified MHC/direct/fluorescence; filed as Kd, often an IC50 or EC50 that approximates it; ≥ and ≤ were set here for values at or beyond the usual limits of such assays.
Assay [17] deals with HLA-B*48:01. Described as above.
In assay [18] the target is HLA-B*46:01. Described as above.
Assay [19] concerns the target HLA-B*40:01. The assay is described as above.
The target in assay [20] is HLA-B*07:02. Described as above. The following applies: source organism: Camelpox virus M-96.
The target in assay [21] is HLA-A*31:01. The assay is described as above.
Assay [22] addresses HLA-B*57:01. Described as above.
Assay [23] has as its target HLA-B*15:01. The description is as above.
For assay [24], the target named is HLA-A*03:01. The description is as above.
Assay [25] deals with HLA-B*51:01. The description is as above. The conditions noted are these: source organism: Camelpox virus M-96.
For assay [26], the target named is HLA-B*27:05. Described as above.
Assay [27] deals with HLA-B*15:17. The description is as above.
In assay [28] the target is HLA-A*01:01. The assay is described as above.
Assay [29] has as its target HLA-A*11:01. The assay is described as above.
Assay [30] has as its target HLA-B*08:01. The description is as above. The following applies: source organism: Mycobacterium tuberculosis str. Haarlem.
The target of assay [31] is HLA-A*26:01. The assay is described as above. The conditions noted are these: source organism: Mycobacterium tuberculosis str. Haarlem.
Assay [32] deals with HLA-A*02:01. The assay is described as above.
Assay [33] concerns the target HLA-A*69:01. The assay is described as above. The conditions noted are these: source organism: Mycobacterium tuberculosis.
The target of assay [34] is HLA-A*02:19. The description is as above. The conditions noted are these: source organism: Francisella tularensis subsp. tularensis FSC033.
Assay [35] has as its target HLA-A*02:11. The assay is described as above. The following applies: source organism: Francisella tularensis subsp. tularensis FSC033.
Assay [36] has as its target HLA-C*08:02. Described as above.
In assay [37] the target is HLA-A*02:12. The description is as above. The conditions noted are these: source organism: Francisella tularensis subsp. tularensis FSC033.
The target in assay [38] is HLA-C*06:02. Described as above.
Assay [39] addresses HLA-A*02:16. Nature of the assay: IEDB peptide-MHC binding, purified MHC/competitive/fluorescence; filed as Kd, often an IC50 or EC50 that approximates it; ≥ and ≤ were set here for values at or beyond the usual limits of such assays. The following applies: source organism: Human immunodeficiency virus type 1 (ELI ISOLATE).
For assay [40], the target named is HLA-A*02:19. The description is as above. The following applies: source organism: Human immunodeficiency virus type 1 (ELI ISOLATE).
Assay [41] deals with HLA-A*02:11. The description is as above. The following applies: source organism: Human immunodeficiency virus type 1 (ELI ISOLATE).
Where [42] appears, read: source organism: Mycobacterium tuberculosis C.
The mark [43] stands for this setting: source organism: dengue virus type 2.
Setting [44] is: source organism: Escherichia coli.
Setting [45] is: source organism: Vaccinia virus WR.
Where [46] appears, read: source organism: Camelpox virus M-96.
Setting [47] is: source organism: Mycobacterium tuberculosis.
Where [48] appears, read: source organism: Francisella tularensis subsp. tularensis FSC198.
[49] abbreviates: source organism: Human immunodeficiency virus type 1 (ELI ISOLATE).

One may read the Kd as the free concentration of one partner at which half of the binding sites on the other are occupied at equilibrium, for simple one-to-one binding. On to FVYSVSFHK, for which the Kd in assay [1] (setting [42]), in assay [2] (setting [42]), in assay [3] (setting [42]) and in [4] (setting [42]) was no less than 5 µM in each case.

Turning to SEMGANFKA, the Kd in assay [5] is 136 nM; in assay [1] (setting [43]), no less than 5 µM; in assay [2] (setting [43]), no less than 5 µM; in assay [3] (setting [43]), no less than 5 µM; in assay [4] (setting [43]), no less than 5 µM; in assay [6], 15.9 µM. Moreover, in [7] (source organism: dengue virus type 1), the Kd was 0.119 µM.

Take MERFSWHVA: the dissociation constant Kd in assay [8] was no less than 20 µM; in [1] (setting [44]), no less than 5 µM; in assay [9] it was no less than 20 µM; in assay [2] (setting [44]), no less than 5 µM; in assay [3] (setting [44]), no less than 5 µM; in [4] (setting [44]), 4.81 µM.

Take YPAVINSNI: the Kd in assay [10] (setting [45]) was 3820 nM; in [11] (setting [45]), no less than 20000 nM; in assay [12], 2810 nM; in [13] (setting [45]), 596 nM; in [14] (setting [45]) it was 4.11 µM; in [15] (setting [45]) it was no less than 20 µM. The Kd in assay [16] (setting [46]) was no less than 20 µM; in assay [17] (setting [46]) it was no less than 20 µM; in assay [18] (setting [46]), no less than 20 µM; in assay [19] (setting [46]), no less than 20 µM; in [20], 373 nM; in assay [21] (setting [46]), no less than 20 µM. The Kd in [22] (setting [46]) was no less than 20 µM; in [23] (setting [46]) it was no less than 20 µM; in [7] (setting [46]) it was no less than 20 µM; in [24] (setting [46]), no less than 20 µM; in [25] it was 296 nM; in assay [26] (setting [46]) it was no less than 20 µM. Moreover, the Kd in assay [27] (setting [46]), in assay [28] (setting [46]) and in assay [29] (setting [46]) was no less than 20 µM each time.

With IPAPGLGAL, the Kd in assay [15] (source organism: Mycobacterium tuberculosis str. Haarlem) is 4.06 µM; in assay [16] (setting [47]), no less than 20 µM; in [17] (setting [47]), no less than 20 µM; in assay [18] (setting [47]), no less than 20 µM; in [19] (setting [47]), no less than 20 µM; in assay [30] it was no less than 20 µM. Moreover, the equilibrium dissociation constant (Kd) was no less than 20 µM in [21] (setting [47]); 11.1 µM in assay [31]; no less than 20 µM in assay [22] (setting [47]); no less than 20 µM in assay [32] (setting [47]); no less than 20 µM in assay [23] (setting [47]); no less than 20 µM in assay [7] (setting [47]). Besides, the Kd in assay [24] (setting [47]) is no less than 20 µM; in [33], 240 nM; in assay [26] (setting [47]), no less than 20 µM; in assay [27] (setting [47]), no less than 20 µM; in assay [28] (setting [47]), no less than 20 µM; in assay [29] (setting [47]), no less than 20 µM.

YMYQYIQEL: the equilibrium dissociation constant (Kd) is 2 nM in assay [34]; no more than 0.001 µM in assay [32] (source organism: Francisella tularensis subsp. holarctica LVS); no more than 1 nM in assay [35]; 736 nM in [36] (setting [48]); 2 nM in assay [37]; 6 nM in assay [38] (setting [48]).

For FAPDRVGAL, the Kd in assay [36] (setting [42]) worked out at 673 nM; in [38] (setting [42]) it was 1890 nM.

Regarding FLGRIWPS, the Kd in [10] (setting [49]) is 0.24 nM; in [39], no more than 0.1 nM; in assay [40] it was 1.8 nM; in assay [11] (setting [49]), 1.33 nM; in assay [41], no more than 0.1 nM; in assay [13] (setting [49]), no less than 5000 nM. The dissociation constant Kd is no more than 0.0001 µM in assay [14] (setting [49]) and no less than 20 µM in [15] (setting [49]).
